The source of these data is patent publication US20050175986A1 (SMIT KLINE BEECHAM, published 2005).

For the assay, the target named is T1, recombinant F protein of Respiratory Syncytial Virus (Respiratory Syncytial Virus, UniProt P03420 26-524).
T1 construct: Recombinant F-protein as described in P. Tsui et al, J. Immunol; 157:772-780 (1996); Coated on plastic in the ELISAs; also called recombinant RSV F-protein; rF protein
Briefly: solid phase ELISA on coated recombinant F protein. The method, then: Binding of the Gλ-1 mABs to recombinant F protein was measured in a standard solid phase ELISA. Antigen diluted in PBS pH 7.0 was adsorbed onto polystyrene round-bottom microplates (Dynatech, Immunolon II) for 18 hours. Wells were then aspirated and blocked with 0.5% boiled casein (BC) in PBS containing 1% Tween 20 […] for two hours. Antibodies (50 μl/well) were diluted to varying concentrations in PBS/0.5% BC containing 0.025% Tween 20 and incubated in antigen coated wells for one hour. Plates were washed three times with PBS containing 0.05% Tween 20, using a Titertek 320 microplate washer, followed by addition of HRP-labelled protein A/G (50 μl) diluted 1:5000. After washing three times, TMBlue substrate (TSI, #TM102) was added and plates were incubated an additional 15 minutes. The reaction was stopped by addition of 1 N H₂SO₄ and absorbance read at 450 nm using a Biotek ELISA reader.
Binding of the Gλ-1 mABs to rF protein was inhibited by mAb B4, for which the F protein amino acids critical for antigen recognition are amino acids 268, 272 and 275 of SEQ ID NO: 20). Binding of the Gλ-1 mABs to rF protein was not inhibited by mAb RSMU19, for which F protein amino acid 429 of SEQ ID NO: 20 is critical for antigen recognition.

T1 sequence (P03420 26-524 limits assumed): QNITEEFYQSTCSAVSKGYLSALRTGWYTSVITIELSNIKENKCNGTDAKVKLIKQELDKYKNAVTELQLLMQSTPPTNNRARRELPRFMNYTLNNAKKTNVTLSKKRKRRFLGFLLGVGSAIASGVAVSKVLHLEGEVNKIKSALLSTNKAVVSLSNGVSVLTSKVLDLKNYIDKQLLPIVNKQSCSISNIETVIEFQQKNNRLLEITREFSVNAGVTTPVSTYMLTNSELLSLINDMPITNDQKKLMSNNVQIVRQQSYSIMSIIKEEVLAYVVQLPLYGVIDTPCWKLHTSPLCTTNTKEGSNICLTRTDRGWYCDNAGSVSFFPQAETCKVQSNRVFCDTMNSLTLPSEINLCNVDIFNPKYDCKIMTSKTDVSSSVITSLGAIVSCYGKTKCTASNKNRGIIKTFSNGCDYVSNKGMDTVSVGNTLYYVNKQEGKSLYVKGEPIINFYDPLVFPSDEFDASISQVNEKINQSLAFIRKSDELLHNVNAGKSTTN

B1: Gλ-1B monoclonal antibody (antibody, human IgG1, V domains shown)
VH: EVQLVESGGGLVQPGGSLRLSCAASGVSLSGYKMNWVRQAPGKGLEWVSSITGMSNYIHYSDSVKGRFTISRDNAMNSLYLQMNSLTAEDTGVYYCATQPGELAPFDHWGQGTLVTVSS
VL: QSVLTQPPSVSAAPGQKVTISCTGSSSNLGAGYDVHWYRQLPGTAPKLLIYDNNNRPSGVPDRFSGSKSGPSASLAISGLQAEDEADYYCQSYDSSLNGYVFGTGTQLTVLG
notes: Full length human IgG1, lambda light chain; made in COS and CHO cells; also called Gλ-1 mAB B; mAB B
In general, EC50 refers to the concentration giving half of the maximal effect. Consider B1, for which the EC50 is 2.6 ng/mL.
